Where a chain is given by its changes, count along the chain named.
B1: pol30-Msh6E6: PCNA mutant evolved for Msh6, IDCL sequence DYDKDLLKIIEL (protein)
chain: MLEAKFEEASLFKRIIDGFKDCVQLVNFQCKEDGIIAQAVDDSRVLLVSLEIGVEAFQEYRCDHPVTLGMDLTSLSKILRCGNNTDTLTLIADNTPDSIILLFEDTKKDRIAEYSLKLMDYDKDLLKIIELQYDSTLSLPSSEFSKIVRDLSQLSDSINIMITKETIKFVADGDIGSGSVIIKPFVDMEHPETSIKLEMDQPVDLTFGAKYLLDIIKGSSLSDRVGIRLSSEAPALFQFDLKSGFLQFFLAPKFNDEE
modifications: left off: Gal4 activation domain, end not stated, kept
B2: pol30-Pol32E9 (protein)
chain: B1 chain with Y121N, K123V, L125S
modifications: left off: Gal4 activation domain, end not stated, kept

Experiments:
Pol32 PIP peptide = test: SPR analysis of PCNA binding to PIP peptide; parameters: species or system yeast; settings: peptide 5-5,000 nM
Description: (§1) To quantify differences in binding affinities of the PCNA mutants relative to the WT, we characterized four PCNA mutants with increased affinity for PIP peptides derived from Rad30, Pol32, Msh6, and Ung1 partners using SPR. These mutants were overexpressed in E. coli, purified by affinity chromatography, and immobilized on an SPR sensor chip for binding characterization. SPR binding analysis enabled direct and sensitive measurement of interaction affinities relative to the Y2H system and indicated an up to 8-fold increase in binding affinity for the different PIP peptides, relative to WT PCNA (Table 1). Such analysis allowed the detection of a significant decrease in the Rad30 PIP peptide dissociation rate in the Pol30-Rad30E9p mutant relative to the WT, indicating a ∼9-fold increase in the lifetime of the PCNA-Rad30 complex (see Table 1). Collectively the ELISA, Y2H, and SPR assays validated and quantified the increase in mutant PCNA binding affinities, relative to WT PCNA.
(§2) Protein interaction assays were carried out using the ProteOn XPR36 (Bio-Rad) instrument. WT or PCNA mutants (0.4 to 5.2 fmol) were immobilized on the surface of a GLM sensor chip by a carbodiimide-activated succinimide-coupling method, as specified by the manufacturer. All SPR experiments were performed by flowing 150 µl of the target peptide at a flow rate of 30 µl/min onto the PCNA-bound chip. Different concentrations (5–5,000 nM) of PIP peptides (Table 1) were injected over the PCNA chip, and binding parameters were determined using ProteOn XPR36 software (Bio-Rad). The ligand (PCNA) and analyte (peptide) buffers were PBST and 150 mM NaCl, 1 mM EDTA, 0.01% Tween-80, 30 mM Hepes, pH 7.5, respectively.

Msh6 PIP peptide = test: SPR analysis of PCNA binding to PIP peptide; parameters: species or system yeast; settings: peptide 5-5,000 nM
Description: as §1, §2

Rfc1 = test: Yeast two hybrid (Y2H) analysis of PCNA-partner interaction; type: binding; parameters: key: ++: major increase in growth; +: moderate increase in growth; similar growth as the WT PCNA-expressing cells; -: minor decrease in growth; --: moderate decrease in growth; ---: major decrease in growth; settings: spotting onto selective agar plates; PCNA fused to AD, partner to BD
Method: (§3) Y2H analysis was performed using the Yeast Two Hybrid Phagemid vector kit (Stratagene), following the manufacturer's instructions. The pAD-PCNA-WT/mutant plasmids were used as bait while plasmids encoding 12 different PCNA partners (Table 1 and Table S1) were used as prey. The YRG2 host strain (Stratagene) was cotransformed with pAD-PCNA WT/mutant and pBD-partner plasmids in all possible combinations using the LiAC method. Single transformants were grown in liquid SC-Leu-Trp to O.D600 10, washed twice with DDW, and diluted to an initial OD600 of 0.3. A series of 10-fold serial dilutions was then spotted onto selective SC-Leu-Trp-His plates and incubated at 30°C for 3 d. For quantitative Y2H, the generation time of the indicated mutants and their respective partners were calculated from their growth curves in liquid SC-Leu-Trp-His media. Cells were grown overnight in SC-Leu-Trp, washed twice with ddH2O, and diluted by a factor of 1∶50 into 10 ml of pre-warmed SC-Leu-Trp-His. O.D600 measurements of the cultures were taken at the indicated time; the generation time (τ) was calculated from the growth curves according to the equation ODt = OD0×2^t/τ. The generation time calculated for each culture is an average of at least 3 independent experiments.
(§4) Table S1: Yeast two hybrid analysis of binding of selected PCNA mutants with seven additional partners not described in Table 1 of the main text. […]
(§5) pol30-Rad30E2 WT WT WT WT WT WT - pol30-Rad30E9 WT WT WT WT WT WT WT pol30-Rad27E6 WT WT WT WT + WT WT pol30-Rad27E31 WT WT WT WT + WT WT pol30-Rad27L1 WT -- WT WT -- WT WT pol30-Rad27L2 WT -- WT WT -- WT WT pol30-Pol32E5 WT WT WT WT WT WT WT pol30-Pol32E9 - WT WT WT WT WT WT pol30-Msh6E2 WT WT + WT WT WT WT pol30-Msh6E6 WT WT ++ WT WT WT WT pol30-Ung1E3 WT - WT WT WT WT WT pol30-79 --- --- --- - --- --- --- a PCNA mutants with enhanced affinities for the different target partners (see Table 1, text). b PCNA mutants were fused to the activating domain (AD), while the different partners were fused to the DNA-binding domain (BD). The growth of the resulting Y2H strains was compared to the growth of the WT PCNA-expressing strain following spotting onto selective agar plates (see Material and Methods). Growth rates on the agar plates were scored and tabulated as follows: ++ major increase in growth; + moderate increase in growth; WT-similar growth as the WT PCNA-expressing cells; - minor decrease in growth; -- moderate decrease in growth; --- major decrease in growth. ND-Not determined.

Cdc9 = test: as above; type: binding; parameters: key: ++: major increase in growth; +: moderate increase in growth; similar growth as the WT PCNA-expressing cells; -: minor decrease in growth; --: moderate decrease in growth; ---: major decrease in growth; settings: spotting onto selective agar plates; PCNA fused to AD, partner to BD
Method: as §3, §4, §5

Apn2 = test: as above; type: binding; parameters: key: ++: major increase in growth; +: moderate increase in growth; similar growth as the WT PCNA-expressing cells; -: minor decrease in growth; --: moderate decrease in growth; ---: major decrease in growth; settings: spotting onto selective agar plates; PCNA fused to AD, partner to BD
Method: as §3, §4, §5

Rrm3 = test: as above; type: binding; parameters: key: ++: major increase in growth; +: moderate increase in growth; similar growth as the WT PCNA-expressing cells; -: minor decrease in growth; --: moderate decrease in growth; ---: major decrease in growth; settings: spotting onto selective agar plates; PCNA fused to AD, partner to BD
Method: as §3, §4, §5

Msh3 = test: as above; type: binding; parameters: key: ++: major increase in growth; +: moderate increase in growth; similar growth as the WT PCNA-expressing cells; -: minor decrease in growth; --: moderate decrease in growth; ---: major decrease in growth; settings: spotting onto selective agar plates; PCNA fused to AD, partner to BD
Method: as §3, §4, §5

Cac1 = test: as above; type: binding; parameters: key: ++: major increase in growth; +: moderate increase in growth; similar growth as the WT PCNA-expressing cells; -: minor decrease in growth; --: moderate decrease in growth; ---: major decrease in growth; settings: spotting onto selective agar plates; PCNA fused to AD, partner to BD
Method: as §3, §4, §5

Eco1 = test: as above; type: binding; parameters: key: ++: major increase in growth; +: moderate increase in growth; similar growth as the WT PCNA-expressing cells; -: minor decrease in growth; --: moderate decrease in growth; ---: major decrease in growth; settings: spotting onto selective agar plates; PCNA fused to AD, partner to BD
Method: as §3, §4, §5

[1] = footnote d, PCNA immobilized on GLM chip

| Molecule | Kd (Pol32 PIP peptide; PCNA immobilized, ProteOn XPR36, read-out: Binding affinity for Pol32 PIP peptide (SPR)) [nM] | Kd (Msh6 PIP peptide; PCNA immobilized, ProteOn XPR36, read-out: Binding affinity for Msh6 PIP peptide (SPR)) [nM] | Fold increase in binding affinity for Msh6 PIP peptide relative to WT PCNA (SPR) (Msh6 PIP peptide; [1]) [fold] | Y2H growth relative to WT PCNA-expressing strain: Rfc1 (Rfc1) | Y2H growth relative to WT PCNA-expressing strain: Cdc9 (Cdc9) | Y2H growth relative to WT PCNA-expressing strain: Apn2 (Apn2) | Y2H growth relative to WT PCNA-expressing strain: Rrm3 (Rrm3) | Y2H growth relative to WT PCNA-expressing strain: Msh3 (Msh3) | Y2H growth relative to WT PCNA-expressing strain: Cac1 (Cac1) | Y2H growth relative to WT PCNA-expressing strain: Eco1 (Eco1) | Fold increase in binding affinity for Pol32 PIP peptide relative to WT PCNA (SPR) (Pol32 PIP peptide; [1]) [fold] |
| --- | --- | --- | --- | --- | --- | --- | --- | --- | --- | --- | --- |
| POL30: wild-type yeast PCNA (POL30), IDCL sequence DIDADFLKIEEL | 360 | 3000 |  |  |  |  |  |  |  |  |  |
| B1 |  |  | 1.6 | WT | WT | WT | WT | ++ | WT | WT |  |
| B2 |  |  |  | WT | - | WT | WT | WT | WT | WT | 2 |
